# Experimental data taken from article PMC3089914, “Structural Basis of the 9-Fold Symmetry of Centrioles” (Cell, 2011).
# Positions count from the first letter of the chain named. Names and notes keep the numbering of the source.
# B1: C. elegans SAS-6 coiled-coil domain fragment (ceCC, residues 181-408) (domain or fragment, UniProt O62479 181-408, looked up)
# chain: SSQAVKLSTFYKSADELASLRQKCGDLEKQVEKLSGVKEEFEEMSEKFKELEDEVELVKEERENIRLLVEDKEDEVADLKQDTESLQKQLEENQEELEIVGNMLREEQGKVDQLQKRNVAHQKEIGKLRAELGTAQRNLEKADQLLKRNSQQQNQQSLDMRKLGELEADLKEKDSMVESLTETIGILRKELENEKLKAAENMDSFEKLSMENENLKEKIAHYRAQRFS
# notes: SAS-6, C. elegans, Uniprot ID O62479, coiled coil, residues 181-408; Cloned in pET15b; His6-tag removed by thrombin; Monomer mass 27.4 kDa as printed; also called SAS-6 ceCC; source: recombinant, bacteria; not shown: His6, N-terminal, cleaved
# B2: C. elegans SAS-6 N terminus plus coiled coil fragment (ceN-CC, residues 1-414) (domain or fragment, UniProt O62479 1-414, looked up)
# chain: MTSKIALFDQTLIASLLQPLSLNQPDFKAYKTKVKLKISEQRNETSGEKELKFEISRSDDFEFLFSETLNNEKYQILARDHDLTVDFDAFPKVIIQHLLCKNIVKNLEEDGEVDARKKAGYHSIADPGKPTEINIILDAEKNFCSFELFSKTPISKGKIFSIKLHAVRGDHLISHLLKICSSQAVKLSTFYKSADELASLRQKCGDLEKQVEKLSGVKEEFEEMSEKFKELEDEVELVKEERENIRLLVEDKEDEVADLKQDTESLQKQLEENQEELEIVGNMLREEQGKVDQLQKRNVAHQKEIGKLRAELGTAQRNLEKADQLLKRNSQQQNQQSLDMRKLGELEADLKEKDSMVESLTETIGILRKELENEKLKAAENMDSFEKLSMENENLKEKIAHYRAQRFSPAPSGL
# notes: SAS-6, C. elegans, Uniprot ID O62479, N terminus plus coiled coil, residues 1-414; A His6 form from pET30a was used for electron microscopy only; source: E. coli BL21 gold (DE3), purified (glutathione sepharose, eluted by prescission protease, dialysis); not shown: GST, N-terminal, cleaved
# B3: C. elegans SAS-6 N terminus plus coiled coil fragment with I154E (ceN-CC[I154E]) (domain or fragment, UniProt O62479 1-414, looked up)
# chain: B2 chain with I154E
# notes: SAS-6, C. elegans, Uniprot ID O62479, residues 1-414, I154 exchanged by glutamate; source: preparation of the mutant not described
# B4: C. elegans SAS-6 N-terminal domain fragment with S123E (ceN[S123E]) (domain or fragment, UniProt O62479 1-168, looked up)
# chain: MTSKIALFDQTLIASLLQPLSLNQPDFKAYKTKVKLKISEQRNETSGEKELKFEISRSDDFEFLFSETLNNEKYQILARDHDLTVDFDAFPKVIIQHLLCKNIVKNLEEDGEVDARKKAGYHEIADPGKPTEINIILDAEKNFCSFELFSKTPISKGKIFSIKLHAVR
# notes: SAS-6, C. elegans, Uniprot ID O62479, N-terminal domain, residues 1-168, Ser123 mutated to glutamate; The crystallised variant; Two molecules in the asymmetric unit; also called ceN variant; ceN-dimer; source: recombinant, purified, crystallised; preparation of the variant not described
# B5: C. elegans SAS-6 N-terminal domain fragment (ceN, residues 1-168) (domain or fragment, UniProt O62479 1-168, looked up)
# chain: B4 chain with E123S
# notes: SAS-6, C. elegans, Uniprot ID O62479, N-terminal domain, residues 1-168; Cloned in a modified pET15b vector; His6-tag removed by thrombin; source: E. coli BL21 gold (DE3), purified (Ni-NTA, size exclusion chromatography); not shown: His6, N-terminal, cleaved
# Tests used:
# [1] = molecular target: C. reinhardtii Bld12p crN-6HR fragment with F145E (crN-6HR[F145E]) (C. reinhardtii); test: AUC; sedimentation velocity, 20°C, 150 μM protein; 20 mM Tris-HCl pH 7.5, 150 mM NaCl, 2 mM TCEP, 1% glycerol
# [2] = molecular target: C. reinhardtii Bld12p crN-6HR fragment with F145E (crN-6HR[F145E]) (C. reinhardtii); test: dilution series monitored by CD at 222 nm; 20°C, samples reduced with DTT; fit to a two-state association (monomer-dimer) model; dimer to monomers
# [3] = molecular target: C. reinhardtii Bld12p crN-6HR fragment with F145E (crN-6HR[F145E]) (C. reinhardtii); test: SEC-MALS; S-200 analytical size exclusion column in line with light scattering and refractive index detectors; PBS with 1 mM DTT; samples of 2-4 mg/ml
# [4] = molecular target: C. reinhardtii Bld12p N-terminal domain fragment (crN, residues 1-159) (C. reinhardtii); test: ITC; dilution: crN at high concentration (1.0-1.6 mM) injected stepwise into buffer; 7°C; 12 mM HEPES pH 7, 100 mM NaCl, 0.7 mM βMe; dimer to monomers
# [5] = molecular target: the molecule itself; test: SEC-MALS; S-200 analytical size exclusion column in line with light scattering and refractive index detectors; PBS with 1 mM DTT; samples of 2-4 mg/ml
# [6] = molecular target: the molecule itself; test: dilution series monitored by CD at 222 nm; 20°C, samples reduced with DTT; fit to a two-state association (monomer-dimer) model; dimer to monomers
# [7] = molecular target: the molecule itself; test: AUC; sedimentation velocity, 20°C, 200 μM protein; 20 mM Tris-HCl pH 7.5, 150 mM NaCl, 2 mM TCEP, 1% glycerol
# [8] = molecular target: the molecule itself; test: crystal structure; X-ray crystallography; sitting drop vapor diffusion
# [9] = molecular target: the molecule itself; test: AUC; sedimentation velocity, 20°C, 300 μM protein; 20 mM Tris-HCl pH 7.5, 150 mM NaCl, 2 mM TCEP, 1% glycerol
# [10] = molecular target: the molecule itself; test: ITC; dilution: 1.6 mM ceN injected stepwise into buffer; 7°C; 20 mM sodium phosphate pH 7, 100 mM NaCl, 1 mM DTT; dimer to monomers
molecule,measurement,setting,value
C. reinhardtii Bld12p crN-6HR fragment with F145E (crN-6HR[F145E]) (domain or fragment),stoichiometry N,[1],2
same,Kd,[2],0.5 µM
same,stoichiometry N,[3],2
"C. reinhardtii Bld12p N-terminal domain fragment (crN, residues 1-159) (domain or fragment)",Kd,[4],60 µM
B1,stoichiometry N,[5],2
same,Kd,[6],0.9 ± 0.1 µM
B2,binding result,[7],binds
B3,stoichiometry N,[7],2
B4,binding result,[8],binds
B5,stoichiometry N,[9],2
same,Kd,[10],~110 µM
